Values of other authors, collected in paper PMC5116031.

Molecular target: BECN1 CCD (Rattus norvegicus) (UniProt Q91XJ1)

Sequence of BECN1 CCD (Q91XJ1 174-266): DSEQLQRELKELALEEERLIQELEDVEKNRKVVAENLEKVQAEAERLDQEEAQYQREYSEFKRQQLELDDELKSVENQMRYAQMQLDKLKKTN

Kd: 89 µM
Substance: BECN1 CCD (from UniProt Q91XJ1)
